# In US20260167710A1 (GlaxoSmithKline, published 2026):
# B1: 22A06-458 (antibody, human IgG1, kappa)
# heavy: QVQLVQSGAEVKKPGASVKVSCKASGYTFISYGMHWVRQAPGQGLEWMGEINPHGGSTSYAQKFKGRVTMTRDTSTSTVYMELSSLRSEDTAVYYCARPSAAYSHYLGIDLWGRGTLVTVSSASTKGPSVFPLAPSSKSTSGGTAALGCLVKDYFPEPVTVSWNSGALTSGVHTFPAVLQSSGLYSLSSVVTVPSSSLGTQTYICNVNHKPSNTKVDKKVEPKSCDKTHTCPPCPAPELLGGPSVFLFPPKPKDTLYITREPEVTCVVVDVSHEDPEVKFNWYVDGVEVHNAKTKPREEQYNSTYRVVSVLTVLHQDWLNGKEYKCKVSNKALPAPIEKTISKAKGQPREPQVYTLPPSRDELTKNQVSLTCLVKGFYPSDIAVEWESNGQPENNYKTTPPVLDSDGSFFLYSKLTVDKSRWQQGNVFSCSVMHEALHNHYTQKSLSLSPGK
# light: DIQMTQSPSSVSASVGDRVTITCRASQGISSWLAWYQQKPGKAPKLLIYAASRLQSGVPSRFSGSGSGTDFTLTISSLQPEDFATYYCQQANVFPLTFGGGTKVEIKRTVAAPSVFIFPPSDEQLKSGTASVVCLLNNFYPREAKVQWKVDNALQSGNSQESVTEQDSKDSTYSLSSTLTLSKADYEKHKVYACEVTHQGLSSPVTKSFNRGEC
# Legend:
# cFcgRIIIa = target: T1, cFcgRIIIa (cynomolgus monkey); assay: SPR (ProteOn XPR36), anti-poly-histidine IgG surface, antibody as analyte, equilibrium fit, 25 C
# T1 construct: extracellular domain
# T1 sequence (Q8SPW2 17-208): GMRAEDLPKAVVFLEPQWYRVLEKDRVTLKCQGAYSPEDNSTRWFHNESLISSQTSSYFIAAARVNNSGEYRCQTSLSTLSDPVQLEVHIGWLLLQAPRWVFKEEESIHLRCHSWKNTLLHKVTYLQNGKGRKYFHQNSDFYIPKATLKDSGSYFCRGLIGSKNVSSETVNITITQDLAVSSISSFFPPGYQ
# cFcgRIIa = target: T2, cFcgRIIa (cynomolgus monkey); assay: as above
# T2 construct: extracellular domain; also called recombinant soluble cynomolgus monkey Fc gamma receptor IIa
# cFcgRIIb = target: T3, cFcgRIIb (cynomolgus monkey); assay: as above
# T3 construct: extracellular domain
# cynomolgus IL-33 = target: T4, cynomolgus IL-33 (cynomolgus monkey, UniProt A0A2K5W3I1 112-269); assay: MSD-SET solution equilibrium titration, 25 C, n = 3
# T4 construct: also called cyno IL-33; cynomolgus monkey IL-33
# T4 sequence: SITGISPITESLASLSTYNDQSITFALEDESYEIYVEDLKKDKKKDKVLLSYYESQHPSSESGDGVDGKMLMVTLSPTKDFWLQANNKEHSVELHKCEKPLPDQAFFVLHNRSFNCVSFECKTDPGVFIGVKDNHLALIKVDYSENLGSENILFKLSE
# human IL-33 [1] = target: T5, human IL-33 (human, Biotinylated in Example 2; the site is not stated.); assay: cell-based or functional assay
# T5 chain: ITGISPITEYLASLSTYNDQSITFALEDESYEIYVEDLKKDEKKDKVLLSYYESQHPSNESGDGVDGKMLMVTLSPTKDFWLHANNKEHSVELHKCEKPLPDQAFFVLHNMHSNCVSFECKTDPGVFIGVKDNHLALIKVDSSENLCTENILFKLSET
# human IL-33 [2] = target: T5, human IL-33; assay: cell-based or functional assay
# [3] = target: T6, cynomolgus recombinant neonatal receptor (FcRn) (cynomolgus monkey, UniProt Q8SPV9 24-297; Q8SPW0 21-119); assay: SPR (ProteOn XPR36), antibody captured by protein L, FcRn as analyte, equilibrium fit, pH 7.4, 25 C
# T6 construct: extracellular domain; beta-2-microglobulin is not mentioned; also called cyno FcRn; cynomolgus monkey FcRn
# T6 sequence (Q8SPV9 24-297 limits assumed, chain 1 of 2): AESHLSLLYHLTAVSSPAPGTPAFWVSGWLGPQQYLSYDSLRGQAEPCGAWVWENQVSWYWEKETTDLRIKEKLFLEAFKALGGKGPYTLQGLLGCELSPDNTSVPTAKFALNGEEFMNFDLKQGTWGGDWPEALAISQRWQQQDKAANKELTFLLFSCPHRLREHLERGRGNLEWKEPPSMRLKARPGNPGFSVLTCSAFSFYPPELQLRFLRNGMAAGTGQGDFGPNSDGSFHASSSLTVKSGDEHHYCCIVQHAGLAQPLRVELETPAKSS
# T6 sequence (Q8SPW0 21-119 limits assumed, chain 2 of 2): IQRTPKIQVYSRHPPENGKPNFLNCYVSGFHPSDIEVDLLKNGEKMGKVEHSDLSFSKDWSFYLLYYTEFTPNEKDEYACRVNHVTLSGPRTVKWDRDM
# [4] = target: T7, human recombinant neonatal receptor (FcRn) (human, UniProt P55899 24-297; P61769 21-119); assay: as above
# T7 construct: also called human FcRn; human recombinant soluble FcRn
# T7 sequence (P55899 24-297 limits assumed, chain 1 of 2): as the sequence (Q8SPV9 24-297 limits assumed, chain 1 of 2) above, with D39N, Q44E, S99G, G189S, N190S, M217L, T269S counted along it
# T7 sequence (P61769 21-119 limits assumed, chain 2 of 2): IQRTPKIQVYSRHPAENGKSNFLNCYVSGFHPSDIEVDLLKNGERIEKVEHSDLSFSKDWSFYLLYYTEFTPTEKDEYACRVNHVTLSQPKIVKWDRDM
# human IL-33 [5] = target: T5, human IL-33; assay: cell-based or functional assay
binder,measurement,setting,value
B1,Kd,cFcgRIIIa,119 nM
same,Kd,cFcgRIIa,2110 nM
same,Kd,cFcgRIIb,1100 nM
same,Kd,cynomolgus IL-33,0.0275 nM
same,"IC50, inhibition of 30 ng/mL IL-33 induced IFN-γ secretion from whole blood, non-pre-complexed, Mean",human IL-33 [1],1.57 nM
same,"IC50, inhibition of 30 ng/mL IL-33 induced IFN-γ secretion from whole blood, non-pre-complexed, donor #32871",human IL-33 [1],0.97 nM
same,"IC50, inhibition of 30 ng/mL IL-33 induced IFN-γ secretion from whole blood, non-pre-complexed, donor #90237",human IL-33 [1],2.6 nM
same,"IC50, inhibition of 30 ng/mL IL-33 induced IFN-γ secretion from whole blood, non-pre-complexed, donor #91680",human IL-33 [1],1.6 nM
same,"IC50, inhibition of 30 ng/mL IL-33 induced IFN-γ secretion from whole blood, non-pre-complexed, donor #91955",human IL-33 [1],0.48 nM
same,"IC50, inhibition of 30 ng/mL IL-33 induced IFN-γ secretion from whole blood, non-pre-complexed, donor #91986",human IL-33 [1],3.04 nM
same,"IC50, inhibition of 30 ng/mL IL-33 induced IFN-γ secretion from whole blood, non-pre-complexed, donor #92251",human IL-33 [1],0.74 nM
same,"pIC50, inhibition of 30 ng/mL IL-33 induced IFN-γ secretion from whole blood, non-pre-complexed, Mean",human IL-33 [1],8.89
same,"pIC50, inhibition of 30 ng/mL IL-33 induced IFN-γ secretion from whole blood, non-pre-complexed, donor #32871",human IL-33 [1],9.01
same,"pIC50, inhibition of 30 ng/mL IL-33 induced IFN-γ secretion from whole blood, non-pre-complexed, donor #90237",human IL-33 [1],8.58
same,"pIC50, inhibition of 30 ng/mL IL-33 induced IFN-γ secretion from whole blood, non-pre-complexed, donor #91680",human IL-33 [1],8.79
same,"pIC50, inhibition of 30 ng/mL IL-33 induced IFN-γ secretion from whole blood, non-pre-complexed, donor #91955",human IL-33 [1],9.31
same,"pIC50, inhibition of 30 ng/mL IL-33 induced IFN-γ secretion from whole blood, non-pre-complexed, donor #91986",human IL-33 [1],8.51
same,"pIC50, inhibition of 30 ng/mL IL-33 induced IFN-γ secretion from whole blood, non-pre-complexed, donor #92251",human IL-33 [1],9.13
same,"IC50, inhibition of IL-33 (5.0 nM) induced β-hexosaminidase release from basophils, pre-complexed, Mean",human IL-33 [2],2.03 nM
same,"IC50, inhibition of IL-33 (5.0 nM) induced β-hexosaminidase release from basophils, pre-complexed, donor #33235",human IL-33 [2],1.39 nM
same,"IC50, inhibition of IL-33 (5.0 nM) induced β-hexosaminidase release from basophils, pre-complexed, donor #90290",human IL-33 [2],4.53 nM
same,"IC50, inhibition of IL-33 (5.0 nM) induced β-hexosaminidase release from basophils, pre-complexed, donor #90356",human IL-33 [2],1.23 nM
same,"IC50, inhibition of IL-33 (5.0 nM) induced β-hexosaminidase release from basophils, pre-complexed, donor #90541",human IL-33 [2],0.97 nM
same,"pIC50, inhibition of IL-33 (5.0 nM) induced β-hexosaminidase release from basophils, pre-complexed, Mean",human IL-33 [2],8.78
same,"pIC50, inhibition of IL-33 (5.0 nM) induced β-hexosaminidase release from basophils, pre-complexed, donor #33235",human IL-33 [2],8.86
same,"pIC50, inhibition of IL-33 (5.0 nM) induced β-hexosaminidase release from basophils, pre-complexed, donor #90290",human IL-33 [2],8.34
same,"pIC50, inhibition of IL-33 (5.0 nM) induced β-hexosaminidase release from basophils, pre-complexed, donor #90356",human IL-33 [2],8.91
same,"pIC50, inhibition of IL-33 (5.0 nM) induced β-hexosaminidase release from basophils, pre-complexed, donor #90541",human IL-33 [2],9.01
same,Kd,[3],2560 nM
same,Kd,[4],1230 nM
same,"IC50, inhibition of IL-33 (125 pM) induced IFN-γ secretion from CD4+ T cells, pre-complexed, Mean",human IL-33 [5],675 pM
same,"IC50, inhibition of IL-33 (125 pM) induced IFN-γ secretion from CD4+ T cells, pre-complexed, N = 1",human IL-33 [5],1060 pM
same,"IC50, inhibition of IL-33 (125 pM) induced IFN-γ secretion from CD4+ T cells, pre-complexed, N = 2",human IL-33 [5],936 pM
same,"IC50, inhibition of IL-33 (125 pM) induced IFN-γ secretion from CD4+ T cells, pre-complexed, N = 3",human IL-33 [5],282 pM
same,"IC50, inhibition of IL-33 (125 pM) induced IFN-γ secretion from CD4+ T cells, pre-complexed, N = 4",human IL-33 [5],591 pM
same,"IC50, inhibition of IL-33 (125 pM) induced IFN-γ secretion from CD4+ T cells, pre-complexed, N = 5",human IL-33 [5],790 pM
same,"IC50, inhibition of IL-33 (125 pM) induced IFN-γ secretion from CD4+ T cells, pre-complexed, N = 6",human IL-33 [5],497 pM
same,"IC50, inhibition of IL-33 (125 pM) induced IFN-γ secretion from CD4+ T cells, pre-complexed, N = 7",human IL-33 [5],574 pM
same,"pIC50, inhibition of IL-33 (125 pM) induced IFN-γ secretion from CD4+ T cells, pre-complexed, Mean",human IL-33 [5],9.2
same,"pIC50, inhibition of IL-33 (125 pM) induced IFN-γ secretion from CD4+ T cells, pre-complexed, N = 1",human IL-33 [5],8.97
